Where two headings read alike, the source gives them in different places.
T1: Human-TNFR2-His (human, UniProt P20333 23-257)
T1 construct: Bought protein; also called human TNFR2 protein; TNFR2 protein; not shown: His tag
T1 sequence (looked up): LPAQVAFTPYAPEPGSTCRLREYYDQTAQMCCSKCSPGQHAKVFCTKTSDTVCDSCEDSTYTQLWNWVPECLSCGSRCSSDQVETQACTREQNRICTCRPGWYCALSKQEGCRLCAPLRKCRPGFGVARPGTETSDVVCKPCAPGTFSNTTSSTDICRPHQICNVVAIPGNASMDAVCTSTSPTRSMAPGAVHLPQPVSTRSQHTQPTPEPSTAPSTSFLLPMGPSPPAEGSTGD

T2: Human TNFR2 mFc (human, UniProt P20333 23-257)
T2 construct: Bought protein; not shown: mFc
T2 sequence (looked up): T1 sequence (looked up)

B1: Antibody G (bispecific antibody, human IgG1, kappa)
light: DIVMTQSPATLSVSPGERATLSCKASQNVGSNVDWYQQKPGQSPRVLIYKASIRYTGIPARFSGSGSGTEFTLTISILQSEDFAVYFCMQSKSYPITFGQGTKLEIKRTVAAPSVFIFPPSDEQLKSGTASVVCLLNNFYPREAKVQWKVDNALQSGNSQESVTEQDSKDSTYSLSSTLTLSKADYEKHKVYACEVTHQGLSSPVTKSFNRGEC
heavy: not shown
notes: IgG1 subtype; full-length TNFR2 antibody with 4-1BB scFv at the N-terminus of the heavy chains
B2: Antibody K (bispecific antibody, human IgG1, kappa)
light: DIQMTQSPSSLSASLGDRVTISCSASQGISNYLNWYQQKPDGTVKLLIYYTSTLHSGVPSRFSGSGSGTDYTLTISSLQPEDIATYYCQQYSKLPWTFGGGTKLEIKRTVAAPSVFIFPPSDEQLKSGTASVVCLLNNFYPREAKVQWKVDNALQSGNSQESVTEQDSKDSTYSLSSTLTLSKADYEKHKVYACEVTHQGLSSPVTKSFNRGECGGGGSGGGGSEVQLVESGGGLVQPGGSLRLSCAASGSRLDYYAVAWFRQAPGKEREEVSCITYSGGSTNYAESVKGRFTISRDNSKNTLYLQMNSLRAEDTAVYYCTTEPYGSSCPLSGYDTWGQGTLVTVSS
heavy: not shown
notes: IgG1 subtype; full-length 4-1BB antibody with TNFR2 VHH at the C-terminus of the light chains
B3: Antibody N (bispecific antibody, human IgG1, kappa)
light: EVQLVESGGGLVQPGGSLRLSCAASGSRLDYYAVAWFRQAPGKEREEVSCITYSGGSTNYAESVKGRFTISRDNSKNTLYLQMNSLRAEDTAVYYCTTEPYGSSCPLSGYDTWGQGTLVTVSSGGGGSGGGGSGGGGSDIQMTQSPSSLSASLGDRVTISCSASQGISNYLNWYQQKPDGTVKLLIYYTSTLHSGVPSRFSGSGSGTDYTLTISSLQPEDIATYYCQQYSKLPWTFGGGTKLEIKRTVAAPSVFIFPPSDEQLKSGTASVVCLLNNFYPREAKVQWKVDNALQSGNSQESVTEQDSKDSTYSLSSTLTLSKADYEKHKVYACEVTHQGLSSPVTKSFNRGEC
heavy: not shown
notes: IgG1 subtype; full-length 4-1BB antibody with TNFR2 VHH at the N-terminus of the light chains
B4: Antibody E2 (bispecific antibody, human IgG4 S228P, kappa)
light: B1 light
heavy: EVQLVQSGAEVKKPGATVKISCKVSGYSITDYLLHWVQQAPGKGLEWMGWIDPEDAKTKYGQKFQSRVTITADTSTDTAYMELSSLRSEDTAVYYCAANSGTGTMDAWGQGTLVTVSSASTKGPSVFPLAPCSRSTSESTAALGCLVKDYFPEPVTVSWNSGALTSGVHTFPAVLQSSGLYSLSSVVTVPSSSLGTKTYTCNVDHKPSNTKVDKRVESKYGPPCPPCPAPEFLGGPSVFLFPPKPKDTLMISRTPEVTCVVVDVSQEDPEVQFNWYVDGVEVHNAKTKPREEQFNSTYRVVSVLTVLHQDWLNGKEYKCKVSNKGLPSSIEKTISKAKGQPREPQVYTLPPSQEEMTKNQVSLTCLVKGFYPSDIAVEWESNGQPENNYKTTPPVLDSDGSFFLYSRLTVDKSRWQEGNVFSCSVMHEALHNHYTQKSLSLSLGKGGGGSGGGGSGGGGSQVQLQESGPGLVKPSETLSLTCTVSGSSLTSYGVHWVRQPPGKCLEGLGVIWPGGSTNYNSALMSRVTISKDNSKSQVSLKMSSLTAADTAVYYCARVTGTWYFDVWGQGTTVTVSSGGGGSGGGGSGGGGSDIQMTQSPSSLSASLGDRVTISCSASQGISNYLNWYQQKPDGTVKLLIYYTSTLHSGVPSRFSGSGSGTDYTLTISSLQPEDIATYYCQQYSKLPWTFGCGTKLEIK
notes: IgG4 subtype; same order as E1

Columns and labels:
Human-TNFR2-His [1] = biological target: T1, Human-TNFR2-His; test: ELISA: Human-TNFR2-His coated (0.1 ug/mL), antibody titrated, goat anti-human IgG Fc detection (Example 2)
Description: (§1) Human-TNFR2-His (manufacturer: SINO, CAT: 10417-H08H, LOT: LC15NO0412) was diluted to 0.1 μg/mL with a coating solution (1×PBS, pH7.4), and coated in 96-well ELISA plate at 100 µL/well overnight at 4° C. The coating solution was poured off. Each well was washed with 1×PBST at 300 μL, washed 4 times with a plate washer, and patted dry on a flat paper. It was blocked with 3% skim milk powder at 300 μL/well, and incubated at 37° C. for 1 h. The blocking solution was poured off, washed 4 times with a plate washer, and patted dry on a flat paper. Negative control and positive control were set up. […] The positive control and antibody were diluted to 10 μg/mL with 3% skim milk powder as the starting concentration, and then diluted by 3-fold gradient (11 gradients in total), and a blank well was set up and only the diluent was added. It was incubated at 37° C. for 1 h at 100 μL/well. The liquid in the well was discarded, washed 4 times with a plate washer, and patted dry on a flat paper. Goat anti-human IgG Fc was diluted with 3% skim milk powder at 1:10000, and incubated at 37° C. for 1 h at 100 μL/well. It was washed 6 times with a plate washer, and patted dry on a flat paper. TMB color developing solution was added at 100 μL/well, and wrapped with aluminum foil. Color development was performed at 37° C. in the dark for 8 min. Termination solution 1M HCl was added to terminate the color development reaction at 100 μL/well. Readings were taken at 450 nm on an ELISA reader.

Human 4-1BB His [2] = biological target: T3, Human 4-1BB His (human, UniProt Q07011 24-186); test: ELISA: Human 4-1BB His coated (0.2 ug/mL), antibody titrated, goat anti-human IgG Fc detection (Example 3)
T3 construct: Bought protein; lots 198-2146F1-W6 and 2407c-214FF1-YC; also called human 4-1BB protein; 4-1BB protein; not shown: His tag
T3 sequence (Q07011 24-186 limits assumed): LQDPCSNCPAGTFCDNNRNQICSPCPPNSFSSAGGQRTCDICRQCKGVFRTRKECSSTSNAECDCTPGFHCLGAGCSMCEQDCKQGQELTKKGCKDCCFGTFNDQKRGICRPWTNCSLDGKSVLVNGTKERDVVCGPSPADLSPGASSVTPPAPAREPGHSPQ
Description: (§2) Human 4-1BB His (manufacturer: Acro, CAT: 41B-H5258, LOT: 198-2146F1-W6) was diluted to 0.2 μg/mL with a coating solution (1×PBS, pH7.4), and coated in 96-well ELISA plate at 100 μL/well overnight at 4° C. The coating solution was poured off. Each well was washed with 1×PBST at 300 μL, washed 4 times with a plate washer, and patted dry on a flat paper. It was blocked with 3% skim milk powder at 300 μL/well, and incubated at 37° C. for 1 h. The blocking solution was poured off, washed 4 times with a plate washer, and patted dry on a flat paper. Negative control and positive control were set up. […] The variable region of the antibody sequence of the positive control consists of SEQ ID NO: 15 and SEQ ID NO: 19, with the addition of the constant region of human IgG1 (SEQ ID NO: 46 and SEQ ID NO: 47). The positive control and antibody were diluted to 10 μg/mL with 3% skim milk powder as the starting concentration, and then diluted by 3-fold gradient (11 gradients in total), and a blank well was set up and only the diluent was added. It was incubated at 37° C. for 1 h at 100 μL/well. The liquid in the well was discarded, washed 4 times with a plate washer, and patted dry on a flat paper. Goat anti-human IgG Fc was diluted with 3% skim milk powder at 1:20000, and incubated at 37° C. for 1 h at 100 μL/well. It was washed 6 times with a plate washer, and patted dry on a flat paper. TMB color developing solution was added at 100 μL/well, and wrapped with aluminum foil. Color development was performed at 37° C. in the dark for 8 min. Termination solution 1M HCl was added to terminate the color development reaction at 100 μL/well. Readings were taken at 450 nm on an ELISA reader.

Human 4-1BB Fc = biological target: T4, Human 4-1BB Fc (human, UniProt Q07011 24-186); test: bridging ELISA: Human 4-1BB Fc coated (0.3 ug/mL), antibody titrated, then Human-TNFR2-His (0.3 ug/mL), HRP anti-His detection (Example 4)
T4 construct: same catalogue and lot number as Human 4-1BB His; not shown: Fc
T4 sequence (Q07011 24-186 limits assumed): as above
Description: Human 4-1BB Fc (manufacturer: Acro, CAT: 41B-H5258, LOT: 198-2146F1-W6) was diluted to 0.3 μg/mL with a coating solution (1×PBS, pH7.4) and coated into a 96-well ELISA plate at 100 µL/well at 4° C. overnight. The coating solution was poured off. Each well was washed with 1×PBST at 300 μL, washed 4 times with a plate washer, and patted dry on a flat sheet. It was blocked with 3% skim milk powder at 300 μL/well, and incubated at 37° C. for 1 h. The blocking solution was poured off, washed 4 times with a plate washer, and patted dry on a flat sheet. […] Starting at 50 nM, which was used as the initial concentration for 3-fold dilution, a total of 10 gradients were diluted, and a blank well was set up and only the diluent was added. It was incubated at 37° C. for 1 h at 100 μL/well. The liquid in the well was discarded, washed 4 times with a plate washer, and patted dry on a flat paper. Human-TNFR2-His (manufacturer: Sino, CAT: 10417-H08H, LOT: LC15NO0412) was diluted to 0.3 μg/mL, 100 μL was added to each well, and incubated at room temperature for 1 h. The plate was washed 3 times with PBST, and then the HRP-labeled his antibody was diluted with sample diluent at 1:5000, 100 μ L was added to each well, and incubated at room temperature for 1 h. It was washed 6 times with a plate washer, and patted dry on a flat paper. TMB color developing solution was added at 100 μL/well, and wrapped with aluminum foil. Color development was performed at 37° C. in the dark for 8 min. Termination solution 1M HCl was added to terminate the color development reaction at 100 μL/well. Readings were taken at 450 nm on an ELISA reader.

Human TNFR2 mFc = biological target: T2, Human TNFR2 mFc; test: bridging ELISA: Human TNFR2 mFc coated (0.3 ug/mL), antibody titrated, then Human 4-1BB His (0.3 ug/mL), HRP anti-His detection (Example 5)
Description: Human TNFR2 mFc (manufacturer: Kaixia, CAT: TN-HM3R2, LOT: 031202) was diluted to 0.3 μg/mL with a coating solution (1×PBS, pH7.4) and coated into a 96-well ELISA plate at 100 μL/well at 4° C. overnight. The coating solution was poured off. Each well was washed with 1×PBST at 300 μL, washed 4 times with a plate washer, and patted dry on a flat paper. It was blocked with 3% skim milk powder at 300 μL/well, and incubated at 37° C. for 1 h. The blocking solution was poured off, washed 4 times with a plate washer, and patted dry on a flat paper. […] Starting at 50 nM, which was used as the initial concentration for 3-fold dilution, a total of 10 gradients were diluted, and a blank well was set up and only the diluent was added. It was incubated at 37° C. for 1 h at 100 µL/well. The liquid in the well was discarded, washed 4 times with a plate washer, and patted dry on a flat paper. Human 4-1BB His (manufacturer: Acro, CAT: 41B-H5258, LOT: 198-2146F1-W6) was diluted to 0.3 μg/mL, 100 μL was added to each well, and incubated at room temperature for 1 h. The plate was washed 3 times with PBST, and then the HRP-labeled his antibody was diluted with sample diluent at 1:5000, 100 μ L was added to each well, and incubated at room temperature for 1 h. It was washed 6 times with a plate washer, and patted dry on a flat paper. TMB color developing solution was added at 100 μL/well, and wrapped with aluminum foil. Color development was performed at 37° C. in the dark for 8 min. Termination solution 1M HCl was added to terminate the color development reaction at 100 μL/well. Readings were taken at 450 nm on an ELISA reader.

Human-TNFR2-His [3] = biological target: T1, Human-TNFR2-His; test: ELISA: Human-TNFR2-His coated (0.1 ug/mL), antibody titrated, goat anti-human IgG Fc detection (Example 2); remark: listed apart in the source
Description: as §1

Human 4-1BB His [4] = biological target: T3, Human 4-1BB His; test: ELISA: Human 4-1BB His coated (0.2 ug/mL), antibody titrated, goat anti-human IgG Fc detection (Example 3); remark: listed apart in the source
Description: as §2

Human-TNFR2-His [5] = biological target: T1, Human-TNFR2-His; test: ELISA: Human-TNFR2-His coated (0.1 ug/mL), antibody titrated, goat anti-human IgG Fc detection (Example 2); remark: listed apart in the source
Description: as §1

Human-TNFR2-His [6] = biological target: T1, Human-TNFR2-His; test: as above; remark: listed apart in the source
Description: as §1

Human 4-1BB His [7] = biological target: T3, Human 4-1BB His; test: ELISA: Human 4-1BB His coated (0.2 ug/mL), antibody titrated, goat anti-human IgG Fc detection (Example 3); remark: listed apart in the source
Description: as §2

Binder | EC50 (read off the curve) (Human-TNFR2-His [1]) [nM] | EC50 (read off the curve) (Human 4-1BB His [2]) [nM] | EC50 (read off the curve) (Human 4-1BB Fc) [nM] | EC50 (read off the curve) (Human TNFR2 mFc) [nM] | EC50 (read off the curve) (Human-TNFR2-His [3]) [nM] | EC50 (read off the curve) (Human 4-1BB His [4]) [nM] | EC50 (read off the curve) (Human-TNFR2-His [5]) [nM] | EC50 (read off the curve) (Human-TNFR2-His [6]) [nM] | EC50 (read off the curve) (Human 4-1BB His [7]) [nM]
B1 | ~0.1 | ~0.07 | ~0.5 | ~0.2 | – | – | – | – | –
B2 | – | – | ~0.3 | ~0.2 | ~0.6 | ~0.1 | – | – | –
B3 | – | – | ~0.3 | – | – | ~0.3 | ~0.1 | – | –
B4 | – | – | – | – | – | – | – | ~0.2 | 0.3 to 0.4
